# In publication PMC5727390, “Targeted inhibition of STAT/TET1 axis as a therapeutic strategy for acute myeloid leukemia”:
# B1: TET1-CPG probe (dsDNA)
# DNA 1: CCGGTAGGCGTCCTCCGCGACCCGC
# DNA 2: GCGGGTCGCGGAGGACGCCTACCGG
# Biological target: STAT3 (UniProt P40763 127-722)
# Assay: EMSA; no compound; Signosis EMSA Assay Kit, manufacturer's protocol with minor modifications; buffer, salt, pH and temperature not stated
# Settings: chain copies: 2; label: 5' biotin on both strands; blunt
# Chain of STAT3 (P40763 127-722): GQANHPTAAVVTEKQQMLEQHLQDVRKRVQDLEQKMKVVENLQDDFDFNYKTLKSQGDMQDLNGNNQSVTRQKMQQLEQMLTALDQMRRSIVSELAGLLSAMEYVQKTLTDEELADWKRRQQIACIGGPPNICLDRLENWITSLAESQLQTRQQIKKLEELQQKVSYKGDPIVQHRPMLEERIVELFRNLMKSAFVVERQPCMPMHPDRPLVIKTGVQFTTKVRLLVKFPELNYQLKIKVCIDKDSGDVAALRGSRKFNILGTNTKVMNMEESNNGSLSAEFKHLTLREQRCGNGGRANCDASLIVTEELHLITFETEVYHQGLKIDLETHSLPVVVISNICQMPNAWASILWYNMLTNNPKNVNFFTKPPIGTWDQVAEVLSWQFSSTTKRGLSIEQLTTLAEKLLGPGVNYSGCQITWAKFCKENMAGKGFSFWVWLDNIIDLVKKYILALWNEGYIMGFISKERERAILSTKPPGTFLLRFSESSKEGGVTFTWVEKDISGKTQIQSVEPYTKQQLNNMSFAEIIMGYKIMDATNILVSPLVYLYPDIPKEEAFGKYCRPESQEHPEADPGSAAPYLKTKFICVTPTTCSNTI
binder,measurement,value
B1,binding result,binds
